Values quoted from earlier work as cited in publication PMC6426597.
pKd: −log10 of the molar value.

Biological target: CD40 (Homo sapiens) (UniProt P25942)
Chain of UniProt P25942 (P25942 21-193): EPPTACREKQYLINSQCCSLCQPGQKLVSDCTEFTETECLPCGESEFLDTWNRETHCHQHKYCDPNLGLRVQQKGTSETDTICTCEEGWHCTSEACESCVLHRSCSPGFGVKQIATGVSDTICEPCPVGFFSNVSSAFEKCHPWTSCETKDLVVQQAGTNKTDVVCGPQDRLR

Question: With TSST-1 (from UniProt P06886) as the substance, how does the pKd read?
Answer: 5.57
